Laboratory results published in patent US5580955A, “Fragments of neurofibromin (NF1) and method to reverse activated ras induced malignant transformation in mammalian cells” (Ludwig Institute for Cancer Research, priority 1995, dated 1996).
Entries after “also recorded” stand apart in the source; their conditions may differ.

Tests used:
c-HaRas protein = assay: Ras GTPase stimulating activity: hydrolysis of [gamma-32P] GTP bound to c-HaRas protein, by GST fusion NF1 mutants; type: biochemical, murine; details: for Activation (fold), Ras GTPase activation: 20 ug/ml NF1 mutants; for Activation (fold), Ras GTPase activation / EC50, concentration required for 50% hydrolysis of GTP bound Ras: 25° C., 20 minutes
Source text: N- and C- terminal deletion mutants were constructed by subcloning the corresponding PCR DNA fragments into the bacterial expression vector pGEX-2TH, as described in Maruta et al., supra. FIG. 4 sets forth the DNA fragments inserted into the expression vector. The number following NF of each mutant indicates the total amino acid residues included. The DNA fragments inserted include the DNA for human type I NF357, human type II NF1-GRD (amino acid residues 1355 to 1531 in addition to the insert of 21 amino acids) and murine c-HaRas (residues 1-189). The type II-specific insert of 21 amino acids is indicated by the number 21 above a triangle following codon 1371. This 21 amino acid insert is set forth in SEQ ID NO: 2. The solid rectangle indicates the GAP active center of 56 amino acids, whereas the shaded rectangle indicates a supporting domain of 22 amino acids.
The expression vectors were transfected into E.coli and the protein expressed as GST fusion proteins. The fusion proteins were thereafter purified from E.coli as glutathione S-transfeRase fusion proteins and affinity-purified on a glutathione (GSH)-agarose column, as described in Maruta, et al., supra.
The purified proteins were then screened for Ras GTPase stimulating activity. The assay was carried out for each of the NF357 deletion mutants.
The hydrolysis of [gamma-^32 P] GTP bound to c-HaRas protein was determined by incubating with bound protein at 25° C. for 20 minutes in the presence or absence of each NF1 mutant preparation in 100 ul of a buffer containing 50 mMTris-HCl, pH 7.5, 15 mMMgCl2, 2.5 mM EDTA, 3 mM ATP, 1 mM dithiothreitol (DTT) and 0.5 mg/ml bovine serum albumin (BSA), then precipitating the unhydrolyzed [gamma-32P] GTP with charcoal, and finally measuring the radioactivity of the [gamma-32P] inorganic phosphate in the supernatant, as described previously, Maruta et al., supra. Protein concentrations were determined by the Bradford method with BSA as a standard.

[1] = test system: V-HaRas transformed NIH/3T3 cells; assay: soft agar colony (SAC) formation by V-HaRas transformed NIH/3T3 cells transfected with NF1 fragment plasmids; type: cell-based; details: for SAC (%), relative soft agar colony forming ability: non-transfected clone #0 = 100; for Colonies/10^3 cells (number of colonies found in soft agar): 1000 cells per plate, 37° C., three weeks
Protocol: The transfectants were then cloned in the presence of a neomycin analogue, i.e., G418 at 400 ug/ml. The transfectants were initially screened for viability in the G418 medium, following Maruta et al., supra., and Nur-E.-Kamal et al., supra.
After the transfectants were screened for viability, the ability of the parental clone and each surviving transfectant to form soft agar colonies (SAC) were then examined by incubating 1000 cells per plate at 37° C. for three weeks under standard culture conditions, as described in Maruta et al., supra.

[2] = test system: V-HaRas transformed NIH/3T3 cells; assay: morphology of V-HaRas transformed NIH/3T3 cells overexpressing NF1 fragments; type: cell-based; details: liquid culture; compared with parental V-HaRas transformed cells
[3] = clone #8, relatively low (L) steady-state mRNA level

Molecule	Activation (fold), Ras GTPase activation (c-HaRas protein) [fold]	EC50, concentration required for 50% hydrolysis of GTP bound Ras (c-HaRas protein) [µg/mL]	also measured
NF56: NF1 fragment, amino acid residues 1441 to 1496 (RPFNDFVKSNFDAARRFFLDIASDCPTSDAVNHSLSFISDGNVLALHRLLWNNQEK)	0	–	Ras GTPase stimulation (in words) (c-HaRas protein): no longer able to stimulate Ras GTPase activity; also recorded: cannot stimulate; also recorded: does not stimulate GTPase activity; also recorded: not capable of GTPase activation; reversion of activated Ras induced transformation (in words) ([1]; expression of the fragment in transformed cells): leads to reversion of activated Ras induced transformation; also recorded: capable of reversing Ras transformation
NF357: NF1 fragment, amino acid residues 1175-1531 of human type I neurofibromin (protein, UniProt P21359 1175-1531, looked up, fragment) TRATFMEVLTKILQQGTEFDTLAETVLADRFERLVELVTMMGDQGELPIAMALANVVPCSQWDELARVLVTLFDSRHLLYQLLWNMFSKEVELADSMQTLFRGNSLASKIMTFCFKVYGATYLQKLLDPLLRIVITSSDWQHVSFEVDPTRLEPSESLEENQRNLLQMTEKFFHAIISSSSEFPPQLRSVCHCLYQATCHSLLNKATVKEKKENKKSVVSQRFPQNSIGAVGSAMFLRFINPAIVSPYEAGILDKKPPPRIERGLKLMSKILQSIANHVLFTKEEHMRPFNDFVKSNFDAARRFFLDIASDCPTSDAVNHSLSFISDGNVLALHRLLWNNQEKIGQYLSSNRDHKAV	14	0.50	GTPase activity, times more active than NF91 (c-HaRas protein): twenty
NF338: NF1 protein fragment, amino acid residues 1194 to 1531, expressed from retroviral vector pMV7 (protein) DTLAETVLADRFERLVELVTMMGDQGELPIAMALANVVPCSQWDELARVLVTLFDSRHLLYQLLWNMFSKEVELADSMQTLFRGNSLASKIMTFCFKVYGATYLQKLLDPLLRIVITSSDWQHVSFEVDPTRLEPSESLEENQRNLLQMTEKFFHAIISSSSEFPPQLRSVCHCLYQVVSQRFPQNSIGAVGSAMFLRFINPAIVSPYEAGILDKKPPPRIERGLKLMSKILQSIANHVLFTKEEHMRPFNDFVKSNFDAARRFFLDIASDCPTSDAVNHSLSFISDGNVLALHRLLWNNQEKIGQYLSSNRDHKAVGRRPFDKMATLLAYLGPPEHK	–	–	cell morphology [2]: differed significantly; SAC (%), relative soft agar colony forming ability ([1]; clone #8, relatively low (L) mRNA level): 5%; average size of the soft agar colony [1, 3]: medium; Colonies/10^3 cells (number of colonies found in soft agar) [1, 3]: 37 Colonies/10^3 cells; SAC (%), relative soft agar colony forming ability ([1]; clones with relatively high (H) mRNA level): 0.4%; Colonies/10^3 cells (number of colonies found in soft agar) ([1]; clones with relatively high (H) steady-state mRNA level): 3 Colonies/10^3 cells; ability to form soft agar colonies (in words) ([1]; compared with non-transfected parental V-HaRas transformed cells): greatly reduced
NF 327: NF1 fragment, residues 1205-1531 (protein, UniProt P21359 1205-1531, looked up, fragment) FERLVELVTMMGDQGELPIAMALANVVPCSQWDELARVLVTLFDSRHLLYQLLWNMFSKEVELADSMQTLFRGNSLASKIMTFCFKVYGATYLQKLLDPLLRIVITSSDWQHVSFEVDPTRLEPSESLEENQRNLLQMTEKFFHAIISSSSEFPPQLRSVCHCLYQATCHSLLNKATVKEKKENKKSVVSQRFPQNSIGAVGSAMFLRFINPAIVSPYEAGILDKKPPPRIERGLKLMSKILQSIANHVLFTKEEHMRPFNDFVKSNFDAARRFFLDIASDCPTSDAVNHSLSFISDGNVLALHRLLWNNQEKIGQYLSSNRDHKAV	14	0.40	–
NF 342: NF1 fragment, residues 1190-1531 (protein, UniProt P21359 1190-1531, looked up, fragment) GTEFDTLAETVLADRFERLVELVTMMGDQGELPIAMALANVVPCSQWDELARVLVTLFDSRHLLYQLLWNMFSKEVELADSMQTLFRGNSLASKIMTFCFKVYGATYLQKLLDPLLRIVITSSDWQHVSFEVDPTRLEPSESLEENQRNLLQMTEKFFHAIISSSSEFPPQLRSVCHCLYQATCHSLLNKATVKEKKENKKSVVSQRFPQNSIGAVGSAMFLRFINPAIVSPYEAGILDKKPPPRIERGLKLMSKILQSIANHVLFTKEEHMRPFNDFVKSNFDAARRFFLDIASDCPTSDAVNHSLSFISDGNVLALHRLLWNNQEKIGQYLSSNRDHKAV	14	0.52	–
NF 326: NF1 fragment, residues 1206-1531 (protein, UniProt P21359 1206-1531, looked up, fragment) ERLVELVTMMGDQGELPIAMALANVVPCSQWDELARVLVTLFDSRHLLYQLLWNMFSKEVELADSMQTLFRGNSLASKIMTFCFKVYGATYLQKLLDPLLRIVITSSDWQHVSFEVDPTRLEPSESLEENQRNLLQMTEKFFHAIISSSSEFPPQLRSVCHCLYQATCHSLLNKATVKEKKENKKSVVSQRFPQNSIGAVGSAMFLRFINPAIVSPYEAGILDKKPPPRIERGLKLMSKILQSIANHVLFTKEEHMRPFNDFVKSNFDAARRFFLDIASDCPTSDAVNHSLSFISDGNVLALHRLLWNNQEKIGQYLSSNRDHKAV	11	1.5	–
NF 80: NF1 fragment, residues 1452-1531 (protein, UniProt P21359 1452-1531, looked up, fragment) HVLFTKEEHMRPFNDFVKSNFDAARRFFLDIASDCPTSDAVNHSLSFISDGNVLALHRLLWNNQEKIGQYLSSNRDHKAV	0	–	–
NF 266: NF1 fragment, residues 1175-1440 (protein, UniProt P21359 1175-1440, looked up, fragment) TRATFMEVLTKILQQGTEFDTLAETVLADRFERLVELVTMMGDQGELPIAMALANVVPCSQWDELARVLVTLFDSRHLLYQLLWNMFSKEVELADSMQTLFRGNSLASKIMTFCFKVYGATYLQKLLDPLLRIVITSSDWQHVSFEVDPTRLEPSESLEENQRNLLQMTEKFFHAIISSSSEFPPQLRSVCHCLYQATCHSLLNKATVKEKKENKKSVVSQRFPQNSIGAVGSAMFLRFINPAIVSPYEAGILDKKPPPRIERGLK	0	–	–
NF 292: NF1 fragment, residues 1205-1496 (protein, UniProt P21359 1205-1496, looked up, fragment) FERLVELVTMMGDQGELPIAMALANVVPCSQWDELARVLVTLFDSRHLLYQLLWNMFSKEVELADSMQTLFRGNSLASKIMTFCFKVYGATYLQKLLDPLLRIVITSSDWQHVSFEVDPTRLEPSESLEENQRNLLQMTEKFFHAIISSSSEFPPQLRSVCHCLYQATCHSLLNKATVKEKKENKKSVVSQRFPQNSIGAVGSAMFLRFINPAIVSPYEAGILDKKPPPRIERGLKLMSKILQSIANHVLFTKEEHMRPFNDFVKSNFDAARRFFLDIASDCPTSDAVNHSL	11	7.5	Ras GTPase stimulation (in words) (c-HaRas protein): stimulate normal Ras GTPase activity
